The target in experiment [1] is T1, cynomolgus monkey CD3 epsilon chain (CD3ε) (cynomolgus monkey (Macaca fascicularis), UniProt Q95LI5 22-198).
T1 construct: also called cynomolgus monkey CD3ε; CD3ε on cyno T cells
T1 chain: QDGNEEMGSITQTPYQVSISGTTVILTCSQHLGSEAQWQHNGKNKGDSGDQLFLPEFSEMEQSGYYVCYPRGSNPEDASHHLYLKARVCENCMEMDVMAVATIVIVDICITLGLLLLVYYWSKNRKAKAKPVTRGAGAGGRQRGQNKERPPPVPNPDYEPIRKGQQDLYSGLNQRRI
Put plainly: FACS on isolated cynomolgus monkey T cells; FITC anti-human light chain secondary. The protocol:
(§1) The heterodimeric bispecific antibodies described in Example 1 were produced in HEK 293 cells and were assayed by fluorescence activated cell sorting (FACS) for binding to T cells, which express CD3ε, and to a human ovarian cancer cell line, Ovcar-8, which expresses mesothelin. Briefly, the heterodimeric bispecific antibodies were incubated with about 50,000 Ovcar-8 cells or isolated human or cynomolgus monkey T cells at 4° C. for one hour. The cells were then washed and stained with a fluorescein isothiocyanate (FITC)-conjugated anti-human light chain secondary antibody and analyzed by flow cytometry. The relative binding was represented by the geometric mean of fluorescence intensity.

For experiment [2], the target named is T2, human CD3 epsilon chain (CD3ε) (human, UniProt P07766 22-207).
T2 construct: also called CD3ε on human T cells; human CD3ε
Put plainly: FACS on isolated human T cells; FITC anti-human light chain secondary. How it is done:
as §1

Experiment [3] concerns the target T1, cynomolgus monkey CD3 epsilon chain …. Put plainly: cell-based or functional assay.
The target in a further experiment is human mesothelin (MSLN) (human, UniProt Q13421 296-598). Put plainly: cell-based or functional assay.
The target in experiment [4] is T3, folate receptor 1 (FOLR1) (human, UniProt P15328 25-234). Description: cell-based or functional assay.
Experiment [5] concerns the target T3, folate receptor 1 (FOLR1). Put plainly: cell-based or functional assay. This is another data set of the same source.

T3 sequence (P15328 25-234): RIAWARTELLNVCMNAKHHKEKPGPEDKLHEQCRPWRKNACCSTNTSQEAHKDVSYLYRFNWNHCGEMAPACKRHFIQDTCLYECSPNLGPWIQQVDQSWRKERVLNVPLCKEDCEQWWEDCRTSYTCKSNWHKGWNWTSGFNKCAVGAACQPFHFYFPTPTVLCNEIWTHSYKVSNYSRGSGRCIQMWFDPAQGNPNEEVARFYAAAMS
T2 sequence (P07766 22-207 limits assumed): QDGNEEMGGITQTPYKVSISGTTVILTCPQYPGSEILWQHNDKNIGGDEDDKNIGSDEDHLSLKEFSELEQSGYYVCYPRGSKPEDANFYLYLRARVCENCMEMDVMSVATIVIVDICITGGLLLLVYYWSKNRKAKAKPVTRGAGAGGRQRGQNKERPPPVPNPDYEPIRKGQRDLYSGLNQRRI
human mesothelin (MSLN), sequence (Q13421 other isoform, or with tags, fused parts or gaps limits assumed): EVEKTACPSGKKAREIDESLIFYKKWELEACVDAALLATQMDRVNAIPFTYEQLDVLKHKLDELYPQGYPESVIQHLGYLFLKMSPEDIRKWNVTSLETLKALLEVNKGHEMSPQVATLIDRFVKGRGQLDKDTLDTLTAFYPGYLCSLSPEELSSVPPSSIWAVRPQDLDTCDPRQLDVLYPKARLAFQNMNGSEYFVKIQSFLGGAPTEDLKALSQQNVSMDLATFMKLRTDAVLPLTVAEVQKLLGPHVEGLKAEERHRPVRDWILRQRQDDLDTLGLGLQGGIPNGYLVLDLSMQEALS

B1: H69072.4 (anti-MSLN/CD3ε heterodimeric bispecific antibody) (bispecific antibody)
chain 1: DIQMTQSPSSVSASVGDRVTITCRASQGISSWLAWYQQKPGKAPKLLIYAASSLQSGVPSRFSGSGSGAAFTLTISSLQPEDFATYFCQQANSFPLTFAGGTKVDIKRGGGGSGGGGSQVQLQESGPGLVKPSQTLSLTCTVSGGSINNNNYYWTWIRQHPGKGLEWIGYIYYSGSTFYNPSLKSRVTISVDTSKTQFSLKLSSVTAADTAVYYCAREDTMTGLDVWGQGTTVTVSSASTKGPSVFPLAPCSRSTSESTAALGCLVKDYFPEPVTVSWNSGALTSGVHTFPAVLQSSGLYSLSSVVTVPSSNFGTQTYTCNVDHKPSNTKVDKTVGGGGSAAAVPRDLEVVAATPTSLLISWDAPHHGVAYYRITYGETGGNSPVQEFTVPGSKSTATISGLKPGVDYTINVYAVLAYPRGYPLSKPISINYRTDYKDDDDKGSSHHHHHH
chain 2: DIQMTQSPSSLSASVGDRVTITCRASQSINNYLNWYQQKPGKAPTLLIYAASSLQSGVPSRFSGSRSGTDFTLTISSLQPEDFAAYFCQQTYSNPTFGQGTKVEVKGGGGSGGGGSQVQLVESGGGVVQPGRSLRLSCAASGFTFSSYGMHWVRQAPGKGLEWVAVISYPGNTKYYADSVKGRFTISRDNSKNTLYLQMNSLRAEDTAVYFCARDQKEWRLIFDYWGQGTLVTVSSRTVAAPSVFIFPPSDEQLKSGTASVVCLLNNFYPREAKVQWKVDNALQSGNSQESVTEQDSKDSTYSLSSTLTLSKADYEKHKVYACEVTHQGLSSPVTKSFNRGEC
Turning to B1, the “FACS binding (geometric mean)” value in experiment [1] is 110 geometric mean of fluorescence intensity. Further, the “FACS binding (geometric mean)” value in experiment [2] is 11 geometric mean of fluorescence intensity. Further, in experiment [3], the “Cyno TDCC EC50 (pM), Ovcar-8 target cells with cynomolgus monkey T cells” value came to 18.8 pM and the “Cyno TDCC Max killing (%), Ovcar-8 target cells with cynomolgus monkey T cells” value came out at 91%.

B2: P73356.3 (anti-MSLN/CD3ε heterodimeric bispecific antibody with Fc region) (bispecific antibody, human IgG1)
chain 1: QVQLQESGPGLVKPSQTLSLTCTVSGGSINNNNYYWTWIRQHPGKGLEWIGYIYYSGSTFYNPSLKSRVTISVDTSKTQFSLKLSSVTAADTAVYYCAREDTMTGLDVWGQGTLVTVSSGGGGSGGGGSSSYELTQPPSVSVSPGQTARITCSGDALPKKYAYWYQQKSGQAPVLVIYEATKRPSGIPERFSGSSSGTMATLTLSGAQVEDEADYYCYSTDSTNYHWVFGGGTKLTVLGASTKGPSVFPLAPCSRSTSESTAALGCLVKDYFPEPVTVSWNSGALTSGVHTFPAVLQSSGLYSLSSVVTVPSSNFGTQTYTCNVDHKPSNTKVDKTVAAAEPKSSDKTHTCPPCPAPELLGGPSVFLFPPKPKDTLMISRTPEVTCVVVDVSHEDPEVKFNWYVDGVEVHNAKTKPREEQYNSTYRVVSVLTVLHQDWLNGKEYKCKVSNKQLPAPIEKTISKAKGQPREPQVYTLPPSRKEMTKNQVSLTCLVKGFYPSDIAVEWESNGQPENNYKTTPPVLKSDGSFFLYSKLTVDKSRWQQGNVFSCSVMHEALHNHYTQKSLSLSPGKAAAHHHHHH
chain 2: EVQLVESGGGLVKPGVSLRLSCAASGFTFSRYGMNWVRQAPGKGLEWVSSISSSGTYIKYADSVKGRFTISRDNAKNSLNLQMNSLRAEDTAVYYCARDRDRYPLDYWGQGTLVTVSSGGGGSGGGGSDIQMTQSPSSLSASVGDRVTITCRASQSINNYLNWYQQKPGKAPTLLIYAASSLQSGVPSRFSGSRSGTDFTLTISSLQPEDFAAYFCQQTYSNPTFGQGTKVEVKRTVAAPSVFIFPPSDEQLKSGTASVVCLLNNFYPREAKVQWKVDNALQSGNSQESVTEQDSKDSTYSLSSTLTLSKADYEKHKVYACEVTHQGLSSPVTKSFNRGECAAAEPKSSDKTHTCPPCPAPELLGGPSVFLFPPKPKDTLMISRTPEVTCVVVAVSHEDPEVKFNWYVDGVEVHNAKTKPREEQYNSTYRVVSVLTVLHQDWLNGKEYKCKVSNKALPAPIEKTISKAKGQPREPQVYTLPPSREEMTKNQVSLTCLVKGFYPSDIAVEWESNGQPENNYDTTPPVLDSDGSFFLYSDLTVDKSRWQQGNVFSCSVMHEALHNHYTQKSLSLSPGK
For the molecule B2, the “human TDCC EC50, killing of Ovcar-8 cells” value with human mesothelin (MSLN) is < 1 pM.

B3: P73352.3 (anti-MSLN/CD3ε heterodimeric bispecific antibody with Fc region, without CH1 and CL) (bispecific antibody)
chain 1: EVQLVESGGGLVKPGVSLRLSCAASGFTFSRYGMNWVRQAPGKGLEWVSSISSSGTYIKYADSVKGRFTISRDNAKNSLNLQMNSLRAEDTAVYYCARDRDRYPLDYWGQGTLVTVSSGGGGSGGGGSDIQMTQSPSSLSASVGDRVTITCRASQSINNYLNWYQQKPGKAPTLLIYAASSLQSGVPSRFSGSRSGTDFTLTISSLQPEDFAAYFCQQTYSNPTFGQGTKVEVKRAAAEPKSSDKTHTCPPCPAPELLGGPSVFLFPPKPKDTLMISRTPEVTCVVVNVSHEDPEVKFNWYVDGVEVHNAKTKPREEQYNSTYRVVSVLTVLHQDWLNGKEYKCKVSNKALPAPIEKTISKAKGQPREPQVYTLPPSREEMTKNQVSLTCLVKGFYPSDIAVEWESNGQPENNYDTTPPVLDSDGSFFLYSDLTVDKSRWQQGNVFSCSVMHEALHNHYTQKSLSLSPGK
chain 2: QVQLQESGPGLVKPSQTLSLTCTVSGGSINNNNYYWTWIRQHPGKGLEWIGYIYYSGSTFYNPSLKSRVTISVDTSKTQFSLKLSSVTAADTAVYYCAREDTMTGLDVWGQGTLVTVSSGGGGSGGGGSSSYELTQPPSVSVSPGQTARITCSGDALPKKYAYWYQQKSGQAPVLVIYEATKRPSGIPERFSGSSSGTMATLTLSGAQVEDEADYYCYSTDSTNYHWVFGGGTKLTVLGAAAEPKSSDKTHTCPPCPAPELLGGPSVFLFPPKPKDTLMISRTPEVTCVVVDVSHEDPEVKFNWYVDGVEVHNAKTKPREEQYNSTYRVVSVLTVLHQDWLNGKEYKCKVSNKQLPAPIEKTISKAKGQPREPQVYTLPPSRKEMTKNQVSLTCLVKGFYPSDIAVEWESNGQPENNYKTTPPVLKSDGSFFLYSKLTVDKSRWQQGNVFSCSVMHEALHNHYTQKSLSLSPGKAAAHHHHHH
Turning to B3, the “human TDCC EC50, killing of Ovcar-8 cells” value with human mesothelin (MSLN) was < 1 pM.

B4: H71365.2 (anti-MSLN/CD3ε heterodimeric bispecific antibody) (bispecific antibody)
chain 1: QVQLVESGGGVVQPGRSLRLSCAASGFTFSSYGMHWVRQAPGKGLEWVAVISYPGNTKYYADSVKGRFTISRDNSKNTLYLQMNSLRAEDTAVYFCARDQKEWRLIFDYWGQGTLVTVSSGGGGSGGGGSQVQLQESGPGLVKPSQTLSLTCTVSGGSINNNNYYWTWIRQHPGKGLEWIGYIYYSGSTFYNPSLKSRVTISVDTSKTQFSLKLSSVTAADTAVYYCAREDTMTGLDVWGQGTTVTVSSASTKGPSVFPLAPCSRSTSESTAALGCLVKDYFPEPVTVSWNSGALTSGVHTFPAVLQSSGLYSLSSVVTVPSSNFGTQTYTCNVDHKPSNTKVDKTVGGGGSAAAVPRDLEVVAATPTSLLISWDAPHHGVAYYRITYGETGGNSPVQEFTVPGSKSTATISGLKPGVDYTINVYAVLAYPRGYPLSKPISINYRTDYKDDDDKGSSHHHHHH
chain 2: DIQMTQSPSSVSASVGDRVTITCRASQGISSWLAWYQQKPGKAPKLLIYAASSLQSGVPSRFSGSGSGAAFTLTISSLQPEDFATYFCQQANSFPLTFAGGTKVDIKRGGGGSGGGGSDIQMTQSPSSLSASVGDRVTITCRASQSINNYLNWYQQKPGKAPTLLIYAASSLQSGVPSRFSGSRSGTDFTLTISSLQPEDFAAYFCQQTYSNPTFGQGTKVEVKRTVAAPSVFIFPPSDEQLKSGTASVVCLLNNFYPREAKVQWKVDNALQSGNSQESVTEQDSKDSTYSLSSTLTLSKADYEKHKVYACEVTHQGLSSPVTKSFNRGEC
B4: the results for the “FACS binding (geometric mean)” value in experiment [1] and in experiment [2] were 276 geometric mean of fluorescence intensity and 66 geometric mean of fluorescence intensity, respectively. Also, in experiment [3], the “Cyno TDCC EC50 (pM), Ovcar-8 target cells with cynomolgus monkey T cells” value was 8.1 pM. Further, the “Cyno TDCC Max killing (%), Ovcar-8 target cells with cynomolgus monkey T cells” value in experiment [3] amounted to 86%.

B5: P136795.3 (anti-FOLR1/CD3ε heterodimeric bispecific antibody) (bispecific antibody)
chain 1: EVQLVESGGGLVQPGGSLKLSCAASGFTFNSYAMNWVRQAPGKGLEWVARIRSKYNNYATYYADSVKGRFTISRDDSKNTAYLQMNNLKTEDTAVYYCVRHGNFGNSYVSWWAYWGQGTLVTVSSGGGGSGGGGSQSVLTQPPSVSEAPRQRVTISCSGSSSNIGNNAVNWYQQLPGKAPKLLIYYDDMLSSGVSDRFSGSKSGTSASLAISGLQSEDEADYYCAAWDDSLNGVVFGGGTKLTVLASTKGPSVFPLAPCSRSTSESTAALGCLVKDYFPEPVTVSWNSGALTSGVHTFPAVLQSSGLYSLSSVVTVPSSNFGTQTYTCNVDHKPSNTKVDKTVGGGGSAAAEPKSSDKTHTCPPCPAPEAAGGPSVFLFPPKPKDTLMISRTPEVTCVVVDVSHEDPEVKFNWYVDGVEVHNAKTKPREEQYNSTYRVVSVLTVLHQDWLNGKEYKCKVSNKALPAPIEKTISKAKGQPREPQVYTLPPSREEMTKNQVSLTCLVKGFYPSDIAVEWESNGQPENNYDTTPPVLDSDGSFFLYSDLTVDKSRWQQGNVFSCSVMHEALHNHYTQKSLSLSPGK
chain 2: not shown
As for B5, in experiment [4], the “EC50 (pM) for IFN-γ release by T cells in presence of T47D cells” value is 27.1 pM, the “EC50 (pM) for IL-2 release by T cells in presence of T47D cells” value came to 20.3 pM, the “EC50 (pM) for IL-10 release by T cells in presence of T47D cells” value is 28.3 pM and the “EC50 (pM) for IL-13 release by T cells in presence of T47D cells” value was determined as 27.8 pM. Further, the “EC50 (pM) for TNF-α release by T cells in presence of T47D cells” value in experiment [4] worked out at 12.5 pM. Besides, in experiment [5], the “EC50 of specific lysis, Cal-51 cells (printed Cal-61) with human T cells” value turned out to be 1.21 pM and the “EC50 of specific lysis, T47D cells with human T cells” value came out at 1.26 pM.

(Values after patent publication US20160115241A1 (Amgen, published 2016).)
